Measurements published in publication PMC5490261, “The structural and functional characterization of human RecQ4 reveals insights into its helicase mechanism”.
Numbering of substitutions follows the chain as printed.

Legend:
Test in all cases: fluorescence polarization; WT-like, low nM apparent Kd; 20 mM HEPES pH 8.0, 10 mM NaCl, 5% glycerol, 1 mM MgCl2, 0.5 mM TCEP, 0.5 nM Cy3-ssDNA; temperature not stated
Conditions in all cases: protein: recombinant; tags: Trx-His6 removed by 3C protease; label: 5' Cy3
[1] = target: T1, RecQ4 427-1208 K843A/R844A/R848A (Homo sapiens, UniProt O94761 427-1208, K843A;R844A;R848A)
T1 sequence: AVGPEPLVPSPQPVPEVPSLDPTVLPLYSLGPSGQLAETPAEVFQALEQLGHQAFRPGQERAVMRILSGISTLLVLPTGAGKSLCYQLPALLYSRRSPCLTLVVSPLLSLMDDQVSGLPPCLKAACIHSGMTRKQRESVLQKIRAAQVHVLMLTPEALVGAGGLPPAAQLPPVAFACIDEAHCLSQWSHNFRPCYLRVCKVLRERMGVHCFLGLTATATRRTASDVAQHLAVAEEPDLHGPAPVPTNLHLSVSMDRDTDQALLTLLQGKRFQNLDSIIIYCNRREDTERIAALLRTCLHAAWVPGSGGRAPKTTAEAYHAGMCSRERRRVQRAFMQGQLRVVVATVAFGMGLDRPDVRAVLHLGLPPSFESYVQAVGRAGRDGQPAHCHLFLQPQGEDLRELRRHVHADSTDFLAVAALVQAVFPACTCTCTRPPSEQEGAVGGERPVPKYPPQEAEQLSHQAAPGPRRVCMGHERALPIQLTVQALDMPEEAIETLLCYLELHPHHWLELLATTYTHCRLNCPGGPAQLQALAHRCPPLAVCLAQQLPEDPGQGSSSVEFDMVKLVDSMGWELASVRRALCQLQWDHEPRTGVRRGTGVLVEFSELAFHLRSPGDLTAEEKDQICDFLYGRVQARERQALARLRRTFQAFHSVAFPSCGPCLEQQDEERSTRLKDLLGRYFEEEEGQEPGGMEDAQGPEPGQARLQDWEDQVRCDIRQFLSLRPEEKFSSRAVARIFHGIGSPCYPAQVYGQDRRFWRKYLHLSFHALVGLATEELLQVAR

[2] = target: T2, RecQ4 427-1208 K843A/R844E/R848A (Homo sapiens, UniProt O94761 427-1208, K843A;R844E;R848A)
T2 sequence: T1 sequence with A418E

[3] = target: T3, RecQ4 427-1208 R894A/R895A (Homo sapiens, UniProt O94761 427-1208, R894A;R895A)
T3 sequence: T1 sequence with A417K, A418R, A422R, R468A, R469A

Measured: binding result

CCATTCCACCCTCTATTTTTTTTTTTTTTT (ssDNA) [T3-Cy3]
binds: all assays above
